Results: paper PMC2607554, “In-Vitro Helix Opening of M. tuberculosis oriC by DnaA Occurs at Precise Location and Is Inhibited by IciA Like Protein”

Target: T1, IciA (rIciA, LysR family) (Mycobacterium tuberculosis H37Rv, UniProt P9WMF5 1-303)
T1 sequence: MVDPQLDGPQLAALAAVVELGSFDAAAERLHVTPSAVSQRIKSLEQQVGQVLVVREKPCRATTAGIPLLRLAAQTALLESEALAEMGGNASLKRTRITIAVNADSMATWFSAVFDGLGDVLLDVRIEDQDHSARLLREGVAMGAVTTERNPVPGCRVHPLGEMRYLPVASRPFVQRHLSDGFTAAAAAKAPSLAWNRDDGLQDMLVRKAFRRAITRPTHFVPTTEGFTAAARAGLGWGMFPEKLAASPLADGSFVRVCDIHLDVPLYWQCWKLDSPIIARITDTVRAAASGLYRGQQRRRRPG
Assay: EMSA; 250-750 ng IciA, 1 ug poly(dI/dC)
Details: protein: recombinant; tags: His tag (pET28a NdeI/HindIII); chain copies: 4; label: 5' 32P; blunt

B1: A+T rich oriC oligonucleotide (Ori F1/Ori R1) (dsDNA)
DNA 1: TTCTTCCGACAACGTTCTTAAAAAAACTTCTCTA
DNA 2: TAGAGAAGTTTTTTTAAGAACGTTGTCGGAAGAA
binding result: binds
